Test results as given in the supplement of paper PMC10567573.

B1: RAB11B (parent)
chain: AVPTDEARAFAEKNNLSFIETSAL

Variants of: B1
Assay: protein stability index of a GFP-peptide fusion (GPS, HEK-293T) (PSI 1-6); higher = more stable
Settings: c terminus: a fixed tail appended
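Also: lentivirally expressed fusions sorted by FACS into six bins by GFP to DsRed ratio, PSI derived from sequencing read proportions per bin multiplied by bin number.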

Going from AVPTDEARAFASKNNLSFIETSAL [E12S] to AVPTDEARAFAEKNNLSFSETSAL [I19S], the protein stability index rises from 2.08 to 4.56.

First: AVPTDEARAFAEKNNLSFEETSAL [I19E]
Second: AVPTDEARAFAEKNNLSFYETSAL [I19Y]
The protein stability index of the first is higher: 4.59 for the first, 3.73 for the second.

Going from AVPTDEARAFAEKNNLSFDETSAL [I19D] to AVPTDEARAFAEKNNLSFVETSAL [I19V], the protein stability index falls from 4.99 to 3.26.

Compared with AVPTDEARAFAEKNNLSFNETSAL [I19N], AVPTDEARAFAEKNNLSFTETSAL [I19T] is higher in protein stability index: 4.1 for the first, 4.11 for the second.

Going from AVPTDEARAFAEKNNLSFPETSAL [I19P] to AVPTDEARAFAEKNNLSFCETSAL [I19C], the protein stability index falls from 5.04 to 4.34.

Compared with AVPTDEARAFAEKNNLSFFETSAL [I19F], AVPTDEARAFAEKNNLSFMETSAL [I19M] is lower in protein stability index: 4.37 for the first, 4.21 for the second.

Compared with AVPTDEARAFAEKNNLSFKETSAL [I19K], AVPTDEARAFAEKNNLSFHETSAL [I19H] is lower in protein stability index: 4.79 for the first, 3.49 for the second.

First: AVPTDEARAFAEKNNLSFRETSAL [I19R]
Second: AVPTDEARAFAEKNNLSFGETSAL [I19G]
The protein stability index of the first is lower: 4.54 for the first, 4.64 for the second.

Compared with AVPTDEARAFAEKNNLSFQETSAL [I19Q], AVPTDEARAFAEKNNLSFAETSAL [I19A] is higher in protein stability index: 4.38 for the first, 4.6 for the second.

Compared with AVPTDEARAFAEKNNLSFLETSAL [I19L], AVPTDEARAFAEKNNLSFWETSAL [I19W] is higher in protein stability index: 3.25 for the first, 3.62 for the second.

First: AVPTDEARAFAEKMNLSFIETSAL [N14M]
Second: AVPTDEARAFAEKENLSFIETSAL [N14E]
The protein stability index of the first is lower: 2.25 for the first, 4.35 for the second.

First: AVPTDEARAFAEKTNLSFIETSAL [N14T]
Second: AVPTDEARAFAEKLNLSFIETSAL [N14L]
The protein stability index of the first is higher: 2.88 for the first, 2.23 for the second.

Going from AVPTDEARAFAEKWNLSFIETSAL [N14W] to AVPTDEARAFAEKKNLSFIETSAL [N14K], the protein stability index rises from 2.83 to 3.38.

First: AVPTDEARAFAEKSNLSFIETSAL [N14S]
Second: AVPTDEARAFAEKANLSFIETSAL [N14A]
The protein stability index of the first is higher: 2.84 for the first, 2.48 for the second.

Going from AVPTDEARAFAEKPNLSFIETSAL [N14P] to AVPTDEARAFAEKQNLSFIETSAL [N14Q], the protein stability index rises from 2.53 to 3.47.

First: AVPTDEARAFAEKHNLSFIETSAL [N14H]
Second: AVPTDEARAFAEKGNLSFIETSAL [N14G]
The protein stability index of the first is lower: 2.26 for the first, 2.73 for the second.

First: AVPTDEARAFAEKRNLSFIETSAL [N14R]
Second: AVPTDEARAFAEKFNLSFIETSAL [N14F]
The protein stability index of the first is higher: 2.27 for the first, 2.25 for the second.

First: AVPTDEARAFAEKVNLSFIETSAL [N14V]
Second: AVPTDEARAFAEKYNLSFIETSAL [N14Y]
The protein stability index of the first is lower: 2.18 for the first, 2.53 for the second.

Going from AVPTDEARAFAEKINLSFIETSAL [N14I] to AVPTDEARAFAEKDNLSFIETSAL [N14D], the protein stability index rises from 2.23 to 3.96.

First: AVPTDEARAFAEKCNLSFIETSAL [N14C]
Second: AVPTDEARAFAEKNNDSFIETSAL [L16D]
The protein stability index of the first is lower: 2.18 for the first, 4.52 for the second.

Compared with AVPTDEARAFAEKNNQSFIETSAL [L16Q], AVPTDEARAFAEKNNWSFIETSAL [L16W] is lower in protein stability index: 4 for the first, 3.25 for the second.

Compared with AVPTDEARAFAEKNNYSFIETSAL [L16Y], AVPTDEARAFAEKNNMSFIETSAL [L16M] is higher in protein stability index: 3.18 for the first, 4.2 for the second.

Going from AVPTDEARAFAEKNNESFIETSAL [L16E] to AVPTDEARAFAEKNNHSFIETSAL [L16H], the protein stability index falls from 5.02 to 4.06.

Going from AVPTDEARAFAEKNNNSFIETSAL [L16N] to AVPTDEARAFAEKNNCSFIETSAL [L16C], the protein stability index falls from 4.25 to 4.1.

Going from AVPTDEARAFAEKNNFSFIETSAL [L16F] to AVPTDEARAFAEKNNSSFIETSAL [L16S], the protein stability index rises from 3.36 to 4.37.

Compared with AVPTDEARAFAEKNNKSFIETSAL [L16K], AVPTDEARAFAEKNNVSFIETSAL [L16V] is lower in protein stability index: 4.62 for the first, 4.29 for the second.

First: AVPTDEARAFAEKNNISFIETSAL [L16I]
Second: AVPTDEARAFAEKNNASFIETSAL [L16A]
The protein stability index of the first is higher: 3.95 for the first, 3.8 for the second.

Compared with AVPTDEARAFAEKNNPSFIETSAL [L16P], AVPTDEARAFAEKNNTSFIETSAL [L16T] is higher in protein stability index: 4.47 for the first, 4.57 for the second.

Compared with AVPTDEARAFAEKNNRSFIETSAL [L16R], AVPTDEARAFAEKNNGSFIETSAL [L16G] is lower in protein stability index: 4.42 for the first, 4.3 for the second.

Going from AVPTDEARAFAEKNNLSFIGTSAL [E20G] to AVPTDEARAFAEKNNLSFIKTSAL [E20K], the protein stability index rises from 2.76 to 3.13.

First: AVPTDEARAFAEKNNLSFIQTSAL [E20Q]
Second: AVPTDEARAFAEKNNLSFIFTSAL [E20F]
The protein stability index of the first is higher: 3.35 for the first, 1.62 for the second.

Going from AVPTDEARAFAEKNNLSFIDTSAL [E20D] to AVPTDEARAFAEKNNLSFIATSAL [E20A], the protein stability index falls from 2.92 to 2.88.

First: AVPTDEARAFAEKNNLSFIRTSAL [E20R]
Second: AVPTDEARAFAEKNNLSFIITSAL [E20I]
The protein stability index of the first is higher: 3.02 for the first, 1.85 for the second.

Compared with AVPTDEARAFAEKNNLSFISTSAL [E20S], AVPTDEARAFAEKNNLSFICTSAL [E20C] is lower in protein stability index: 3.18 for the first, 2.28 for the second.

Going from AVPTDEARAFAEKNNLSFIVTSAL [E20V] to AVPTDEARAFAEKNNLSFIHTSAL [E20H], the protein stability index rises from 1.95 to 2.36.

Going from AVPTDEARAFAEKNNLSFIPTSAL [E20P] to AVPTDEARAFAEKNNLSFIMTSAL [E20M], the protein stability index falls from 3.17 to 2.05.

Compared with AVPTDEARAFAEKNNLSFIWTSAL [E20W], AVPTDEARAFAEKNNLSFILTSAL [E20L] is higher in protein stability index: 1.32 for the first, 2.15 for the second.

Going from AVPTDEARAFAEKNNLSFITTSAL [E20T] to AVPTDEARAFAEKNNLSFINTSAL [E20N], the protein stability index falls from 2.44 to 1.74.

Going from AVPTDEARAFAEKNNLSFIYTSAL [E20Y] to AVPTDEARAFAEKNNLSFIEESAL [T21E], the protein stability index rises from 2.31 to 4.67.

Compared with AVPTDEARAFAEKNNLSFIERSAL [T21R], AVPTDEARAFAEKNNLSFIEQSAL [T21Q] is higher in protein stability index: 3.42 for the first, 4.12 for the second.

Going from AVPTDEARAFAEKNNLSFIECSAL [T21C] to AVPTDEARAFAEKNNLSFIEKSAL [T21K], the protein stability index rises from 2.85 to 3.65.

Compared with AVPTDEARAFAEKNNLSFIENSAL [T21N], AVPTDEARAFAEKNNLSFIEPSAL [T21P] is lower in protein stability index: 2.86 for the first, 2.35 for the second.

Compared with AVPTDEARAFAEKNNLSFIEFSAL [T21F], AVPTDEARAFAEKNNLSFIEHSAL [T21H] is higher in protein stability index: 2.34 for the first, 3.06 for the second.

Going from AVPTDEARAFAEKNNLSFIESSAL [T21S] to AVPTDEARAFAEKNNLSFIELSAL [T21L], the protein stability index falls from 3.64 to 3.08.

Compared with AVPTDEARAFAEKNNLSFIEISAL [T21I], AVPTDEARAFAEKNNLSFIEGSAL [T21G] is higher in protein stability index: 2.3 for the first, 2.38 for the second.

Compared with AVPTDEARAFAEKNNLSFIEASAL [T21A], AVPTDEARAFAEKNNLSFIEDSAL [T21D] is higher in protein stability index: 3.41 for the first, 4.39 for the second.

Compared with AVPTDEARAFAEKNNLSFIEMSAL [T21M], AVPTDEARAYAEKNNLSFIETSAL [F10Y] is lower in protein stability index: 3.35 for the first, 3.2 for the second.
